One molecule from article PMC8794075 (Emerging Microbes & Infections, 2022) can be followed below.

Assay [1] concerns the target SARS-CoV-2 RBD protein (wild type) (SARS-CoV-2, UniProt P0DTC2). The assay can be described thus: ELISA. To be noted: both partners purified. (An ELISA detects its analyte on a solid surface through an enzyme-linked reagent.)
In a further assay the target is SARS-CoV-2 NTD protein (SARS-CoV-2 Wuhan-Hu-1, UniProt P0DTC2). The assay can be described thus: ELISA. To be noted: both partners purified.

B1: MAb S3H3 (antibody, V domains shown)
VH: QVQLQQPGAELVRPGASVKLSCKASGYSFTRFWMNWVKQRPGQGLEWIGMIHPSDSETRLNQKFKDKATLTVDKSSTTAYMQLSSPTSEDSAVYYCARKDYDYDAWFAYWGQGTLVTVSA
VL: DIVLTQSPASLAVSLGQRATISCRASKSVSASVYSYMHWYQQKPGQPPKLLIYLASSLESGVPARFSGSGSGTDFTLNIHPVEEEDAATYYCHHSRELPPAFGGGTKLEIK
Take B1: the binding result (in assay [1]; with SARS-CoV-2 NTD protein) was “no binding (tested: 100 ng/well)” in each case.
